# In the RNAGym collection of RNA variant scans (doi:10.7554/elife.90254):
# B1: LINE1-full (parent)
# chain: UACGUAGGUGGUUUUCCCCUGAUAGUGCUAAGGGGGCCUGGAAGUUUGGACUGGGCAGAGCUCAACACAGCGUGGCAAAGUGGCUGUGGCUAGACUGCCUCUCUGGAUUCCUCGUCACUCAGCAGGGCAUCUCUGAGAGAAAUGCC
# Variants of: B1
# Assay: self-cleavage, relative activity (ratio to wild type); higher = more cleavage; in vitro, sequencing; the parent is a self-cleaving ribozyme
row,Variant,self-cleavage
1,A24U A69U,0.09
2,A43G G127C,0.77
3,U20G C61U,0.09
4,A64U U73C,0.58
5,A64U A77C,0.39
6,U73A A138U,1.72
7,G7U U85A,0.13
8,A31U U115G,0.37
9,A65C U87C,0.04
10,U12C C111U,1.74
11,U39A C90A,0.03
12,U62C A117U,0.03
13,A42U A57U,0.04
14,U87C C113U,0
15,U9A G35A,1.09
16,G83U U112C,0.85
17,U96C A138U,0.1
18,U104C U109A,0.65
19,U47A U130C,1.51
20,U9G A64U,0.53
21,U1A U115C,1.3
22,C16A A141G,1.35
23,A124G A136U,1.3
24,C38U A141G,0.84

row,Variant,self-cleavage
1,C95U U100C,0.59
2,U39A U45A,1.54
3,U26A A136U,1.2
4,U15A U130C,0.67
5,A92U A136G,0.94
6,U1A A78G,0.86
7,U87A C123U,0.06
8,A64U G106U,0.34
9,C18U U143C,1.11
10,G58A A121G,0.13
11,U23A A117C,1.6
12,A64U C133U,0.49
13,U87C G126U,0.3
14,U15C U100C,1.81
15,U14C U108C,1.44
16,G74A U102C,1.08
17,U46C A136U,1.44
18,A22G G36C,0.37
19,G21A A57U,0.02
20,U46C C111U,1.24
21,U29C A138G,1.72
22,G8A A121C,0.46
23,G21A A141G,1.16
24,A78U U109A,1.84

row,Variant,self-cleavage
1,U46A A141G,1.36
2,U29A U143C,1.16
3,U112A,1.43
4,U12C U73A,1.75
5,G35C A65G,0.04
6,C71U U119C,1.18
7,U26A C38A,0.73
8,G27A C98A,0.14
9,U1C A64G,0.2
10,U20C A136U,1.51
11,A129U A138G,0.93
12,G34A A57C,0.07
13,G36U A77G,2.39
14,A121G G125A,1.29
15,U29A A77U,1.79
16,C37U U47A,1.41
17,U26A G82A,1.18
18,U46C U85C,0.35
19,U46G U112A,1.47
20,C51U U104C,1.62
21,A30U U45G,0.74
22,U81A U132A,1.7
23,A107C U143A,1.79
24,U52A U96A,0.07

row,Variant,self-cleavage
1,A50G A65G,0.14
2,A79U U81C,0.4
3,G53A U102G,0.68
4,G70A A136G,0.11
5,U47G U112C,0.8
6,U26C A142G,1.43
7,U81C C95A,0.03
8,C61U U104A,0.02
9,G34A C146A,1.39
10,G8C A50G,1.14
11,C28A A94G,0
12,U119C U130A,1.93
13,C3U U45C,0.8
14,U81C C116U,1.14
15,A2C U39A,1.3
16,G27A U112C,1.7
17,A24G U85G,0.1
18,A24G U85A,0.13
19,A50U A67G,0.33
20,U46C U108C,1.69
21,U39C A124G,0.53
22,U9C A43G,1.12
23,A43U G72A,1.38
24,A67U U85C,0.01

row,Variant,self-cleavage
1,A42G C101U,1.75
2,U12C G49U,1.35
3,G48A A77G,1.73
4,A79U C111G,2.75
5,U29C A140G,1.2
6,U46G A129G,1.93
7,A92G U112C,0.13
8,U15C G35A,1.41
9,G10A U62C,0.06
10,G27A U85C,0.13
11,C110G A129G,1.36
12,C95A U115C,0.11
13,C51A U62A,0.02
14,U20G G74A,1.29
15,U46A C146U,1.63
16,G60A C111U,0.04
17,U45A A65G,0.07
18,U29A A94G,0.54
19,C37G A57G,0.73
20,U9C A50C,1.25
21,A65U A141G,0.18
22,U15C A136U,1.41
23,C17U A94G,0.31
24,U1C U13A,0.69

row,Variant,self-cleavage
1,C16A A117G,1.01
2,A42G A77G,2.66
3,C90G U109C,0.07
4,U100A U115C,1.22
5,U13C G122A,1.5
6,U29C U119C,1.45
7,U52C C56U,0.11
8,G54U C84U,0.07
9,U20C C84G,0.09
10,C38U U87C,0.06
11,C61U U91C,0.03
12,A140G C146U,1.63
13,U104A U143C,1.13
14,C3G U81C,0.75
15,U52A A79U,2.26
16,A2G C66U,0.4
17,A57C U132A,0
18,G7C U12G,1.19
19,U12C A121G,1.74
20,U5A A59U,0.52
21,G70A A142G,0.11
22,U12G C61A,0.14
23,A77U A141U,1.07
24,U62C U132C,0.06

row,Variant,self-cleavage
1,U13C U115C,1.53
2,U115A G122C,1.09
3,C51U U115C,1.98
4,U46A A121U,1.43
5,A30G G105C,0.25
6,G55A A107G,0.22
7,G32A A77G,1.56
8,U15A U112A,1.53
9,G10A A59G,0.17
10,G53A U134G,0.56
11,U20C A117U,1.61
12,U81C U143A,1.22
13,U29C A136U,1.54
14,A78U U132C,1.92
15,G89A A136G,0.04
16,G7U A140G,1.33
17,A43G A124G,1.05
18,A94U A141U,0.42
19,U85A U100C,0.21
20,A2G A69G,0.32
21,U109C A136U,1.45
22,A24G U104A,1.24
23,U81G A117U,1.32
